From PMC8962251 (Biomedicines, 2022)
Where no end group is shown, it is not given here.

Target: T1, SARS CoV-2 S1S2 trimer (SARS-CoV-2, UniProt P0DTC2 14-1213)
T1 construct: also called trimeric S1S2; "wt" spike trimer
Assay: SPR
Conditions: both partners purified

B1: CVRBDL-3 (peptide)
peptide: HDFWWEYDKKNDTWTRRRR-NH2
notes: also called CVRDBL-3; CVRBD-3; source: synthetic peptide; bought: CASLO
- stoichiometry N: 1
